Key:
[1] = biological target: HLA-B*44:02; experiment: IEDB peptide-MHC binding, purified MHC/competitive/radioactivity; filed as Kd, often an IC50 or EC50 that approximates it; ≥ and ≤ were set here for values at or beyond the usual limits of such assays
[2] = biological target: HLA-B*44:03; experiment: as above
[3] = biological target: HLA-A*01:01; experiment: as above
[4] = biological target: HLA-A*23:01; experiment: as above
[5] = biological target: HLA-A*24:02; experiment: as above
[6] = biological target: HLA-A*26:01; experiment: as above
[7] = biological target: HLA-A*29:02; experiment: as above
[8] = biological target: HLA-A*30:02; experiment: as above
[9] = biological target: HLA-A*03:01; experiment: IEDB peptide-MHC binding, purified MHC/direct/fluorescence; filed as Kd, often an IC50 or EC50 that approximates it; ≥ and ≤ were set here for values at or beyond the usual limits of such assays; settings: source organism: Cryptosporidium parvum
[10] = biological target: HLA-A*02:06; experiment: IEDB peptide-MHC binding, purified MHC/competitive/radioactivity; filed as Kd, often an IC50 or EC50 that approximates it; ≥ and ≤ were set here for values at or beyond the usual limits of such assays
[11] = biological target: HLA-B*58:01; experiment: IEDB peptide-MHC binding, purified MHC/direct/fluorescence; filed as Kd, often an IC50 or EC50 that approximates it; ≥ and ≤ were set here for values at or beyond the usual limits of such assays
[12] = biological target: HLA-A*03:01; experiment: IEDB peptide-MHC binding, purified MHC/competitive/radioactivity; filed as Kd, often an IC50 or EC50 that approximates it; ≥ and ≤ were set here for values at or beyond the usual limits of such assays; settings: source organism: Vaccinia virus WR
[13] = biological target: HLA-A*11:01; experiment: as above; settings: source organism: Vaccinia virus WR
[14] = biological target: HLA-A*31:01; experiment: as above; settings: source organism: Vaccinia virus WR
[15] = biological target: HLA-A*33:01; experiment: as above; settings: source organism: Vaccinia virus WR
[16] = biological target: HLA-A*68:01; experiment: as above; settings: source organism: Vaccinia virus WR
[17] = source organism: Dengue virus 3 Sri Lanka/1266/2000
[18] = source organism: Dengue virus 3 Martinique/1243/1999
[19] = source organism: Mammarenavirus brazilense
[20] = source organism: Dengue virus 4 Dominica/814669/1981
[21] = source organism: Mammarenavirus whitewaterense
[22] = source organism: Dengue virus 2 Jamaica/1409/1983
[23] = source organism: SARS coronavirus Tor2
[24] = source organism: Dengue virus 4 Philippines/H241/1956
[25] = source organism: Mammarenavirus guanaritoense
[26] = source organism: Lymphocytic choriomeningitis virus (strain Armstrong)
[27] = source organism: Lassa virus Josiah

## MEAQLVRQM
[1]; [17]
  Kd: 0.0147 µM
[2]; [17]
  Kd: 0.123 µM

## AEITPQAST
[1]; [18]
  Kd: 0.0165 µM

## TERSASGGVY
[3]; [19]
  Kd: 1.71 µM
[4]; [19]
  Kd: ≥ 44.9 µM
[5]; [19]
  Kd: ≥ 70.3 µM
[6]; [19]
  Kd: ≥ 54.6 µM
[7]; [19]
  Kd: ≥ 55.5 µM
[8]; [19]
  Kd: 1.01 µM

## FFAFGHMIK
[9]
  Kd: ≥ 20 µM

## LTLTAAVLLL
[3]; [18]
  Kd: 13.9 µM

## IGKMFESTY
[8]; [20]
  Kd: 0.338 µM

## PYVPMPCMI
[4]; [21]
  Kd: 0.0417 µM
[5]; [21]
  Kd: 0.0574 µM
[7]; [21]
  Kd: ≥ 60.7 µM

## VTTWENVPYL
[3]; [18]
  Kd: 11.3 µM

## ITLTAALLLL
[3]; [22]
  Kd: 5.94 µM
[10]; [22]
  Kd: 0.0274 µM

## VLVGVVTLY
[6]; [22]
  Kd: 13.6 µM
[8]; [22]
  Kd: 0.0583 µM

## NTIFTLTVAW
[6]; [17]
  Kd: 8.78 µM
[1]; [17]
  Kd: 7.26 µM
[2]; [17]
  Kd: ≥ 23.1 µM

## LSNAGSNNW
[11]; source organism: Mycobacterium tuberculosis
  Kd: 0.0486 µM

## ETPHLMGWDY
[3]; [23]
  Kd: 0.301 µM
[4]; [23]
  Kd: ≥ 70 µM
[5]; [23]
  Kd: ≥ 70.3 µM
[6]; [23]
  Kd: 0.00491 µM
[7]; [23]
  Kd: 0.0927 µM
[8]; [23]
  Kd: 0.696 µM

## PVSAMVRMY
[3]; [23]
  Kd: 11.4 µM
[4]; [23]
  Kd: ≥ 39.2 µM
[5]; [23]
  Kd: ≥ 40.9 µM
[6]; [23]
  Kd: ≥ 36.7 µM
[7]; [23]
  Kd: 2.73 µM
[8]; [23]
  Kd: 9.13 µM

## RDTAEAAKW
[11]; source organism: Mycobacterium tuberculosis variant bovis
  Kd: 1.59 µM

## IFWRNTNPI
[3]; [23]
  Kd: ≥ 78.1 µM
[4]; [23]
  Kd: 9.15 µM
[5]; [23]
  Kd: ≥ 31.5 µM
[6]; [23]
  Kd: ≥ 77.9 µM
[7]; [23]
  Kd: ≥ 35.2 µM
[8]; [23]
  Kd: ≥ 78.9 µM

## ENPYRTWAYH
[6]; [24]
  Kd: ≥ 69.7 µM

## NYADRRWCF
[4]; [22]
  Kd: 0.0506 µM
[5]; [22]
  Kd: 0.0122 µM

## PWLSSKPEF
[4]; [24]
  Kd: 0.116 µM

## FSCGLSLQDY
[12]
  Kd: 0.977 µM
[13]
  Kd: 0.269 µM
[7]; source organism: Vaccinia virus WR
  Kd: ≥ 71.4 µM
[14]
  Kd: 2.31 µM
[15]
  Kd: 9.25 µM
[16]
  Kd: 0.263 µM

## VAEMDGIQY
[3]; [23]
  Kd: 0.0308 µM
[4]; [23]
  Kd: ≥ 77.8 µM
[5]; [23]
  Kd: ≥ 77.6 µM
[6]; [23]
  Kd: 1.27 µM
[7]; [23]
  Kd: 0.0583 µM
[8]; [23]
  Kd: 0.0195 µM

## SELETPNLAE
[2]; source organism: Dengue virus 1 Singapore/S275/1990
  Kd: 6.33 µM

## MELKYSWKT
[2]; [18]
  Kd: 0.343 µM

## GYRFFNKTL
[4]; [25]
  Kd: 0.21 µM
[5]; [25]
  Kd: 1.19 µM
[7]; [25]
  Kd: 3.59 µM

## KEVALLRTYC
[2]; [24]
  Kd: 0.128 µM

## ESEMIIPKNF
[3]; [22]
  Kd: ≥ 70.4 µM
[6]; [22]
  Kd: ≥ 69.7 µM

## MSPGYVLGVF
[4]; [20]
  Kd: 1 µM
[5]; [20]
  Kd: 1.48 µM
[6]; [20]
  Kd: 1.6 µM

## ASFYYIWKSY
[3]; [23]
  Kd: 3.11 µM
[4]; [23]
  Kd: ≥ 32.1 µM
[5]; [23]
  Kd: ≥ 28.6 µM
[6]; [23]
  Kd: 2.1 µM
[7]; [23]
  Kd: 0.0714 µM
[8]; [23]
  Kd: 0.000481 µM

## MYFHRRDLRL
[4]; [22]
  Kd: 0.0573 µM
[5]; [22]
  Kd: 0.149 µM

## IKYTDRKWCF
[5]; [18]
  Kd: 2.37 µM

## SEMGANFRAG
[1]; [24]
  Kd: 0.095 µM
[2]; [24]
  Kd: 0.868 µM

## IYGAAFSGV
[5]; [22]
  Kd: 0.398 µM

## CWLVTNGSYL
[4]; [26]
  Kd: 0.138 µM
[5]; [26]
  Kd: 0.841 µM
[7]; [26]
  Kd: 2.89 µM

## NEEKITQQM
[1]; [18]
  Kd: 0.578 µM

## YCNYSKYWYL
[3]; [27]
  Kd: 9.73 µM
[4]; [27]
  Kd: 1.15 µM
[5]; [27]
  Kd: 4.44 µM
[6]; [27]
  Kd: ≥ 69.7 µM
[7]; [27]
  Kd: 10.8 µM
[8]; [27]
  Kd: ≥ 22.7 µM

## FTDPSSVAA
[3]; [24]
  Kd: 0.00171 µM
[10]; [24]
  Kd: 0.0594 µM

## GTFLCANEY
[3]; [23]
  Kd: 0.0974 µM
[4]; [23]
  Kd: ≥ 36.4 µM
[5]; [23]
  Kd: 11.4 µM
[6]; [23]
  Kd: 0.262 µM
[7]; [23]
  Kd: 0.00383 µM
[8]; [23]
  Kd: 0.000406 µM

Reference: the Immune Epitope Database (IEDB)
